Read-outs that look alike come from different tables or passages of the source.
Type: physicochemical
Details: for alpha-helical secondary structure from CD spectrum: 292 microM, pH 7.2; for reversibility of thermal unfolding (up and down scan): CD signal as a function of temperature, about 1 degree Celsius per minute
Method: The said synthesized peptide was dissolved at a concentration of 292 microM in 20 mM phosphate buffer (PBS), 150 mM NaCl, pH 7.2. The CD spectra were measured between […], at 5 and 90 degrees Celsius (FIG. 3).
To analyse whether the temperature-induced transition between helical and nonhelical states was reversible, a forward (up) and backward (down) thermal scan was performed on the same sample, by recording the CD signal at […] as a function of temperature at a scanning rate of about 1 degree Celsius per minute (FIG. 4).
It was further analyzed whether the thermal unfolding curve of FIG. 4 conformed to the thermodynamic equations describing the equilibrium folding/unfolding reaction between three molecules free (monomeric) peptide and one entity of folded (trimeric) complex. This reaction is generally written as 3 peptide <=> peptide3
[formula] [formula] [formula] and • T≡the temperature, in degrees Kelvin, of the sample • θ(T)≡the CD-signal [theta]222 nm, in deg cm^2 dmol^−1, as a function of T • θM(T)≡the CD-signal for 100% free (monomeric) peptide as a function of T • θT(T)≡the CD-signal for 100% associated (trimeric) peptide as a function of T • Tt≡the transition temperature, where 50% of the total peptide concentration is associated • ΔHt≡the enthalpy difference, in kJ per mole peptide, between mono- and trimeric states • ΔCp≡the heat capacity difference, in J mol^−1 K^−1, between mono- and trimeric states • R≡the ideal (universal) gas constant≡8.31 J mol^−1 K^−1
FIG. 5 represents fitting of a theoretic equation for trimeric association to experimental data. The experimental data are taken from FIG. 4, curve labeled “UP”. The theoretic equations used are listed supra. The fitted parameters (fitting results) are listed at the right in FIG. 5. “Transit. T” corresponds to Tt, but is expressed here in degrees Celsius. The parameter “delta Cp” was kept constant at 3.0 kJ mol^−1 K^−1. The parameters “thetaM(T)” and “thetaT(T)” were treated as linear functions of T, resulting in the white straight lines described by the respective offsets and slopes indicated at the right in the figure. “RMS Resid.” refers to the root-mean-square of the differences between experimental and theoretic data points. The fitted (theoretic) curve itself is plotted in white on the figure and coincides over the entire temperature range with the experimental data points shown in black.

Row | Substance | thermal stability (in words) | alpha-helical secondary structure from CD spectrum (5 degrees Celsius) | alpha-helical secondary structure from CD spectrum (90 degrees Celsius) | reversibility of thermal unfolding (up and down scan) | temperature up to which the peptide did not quantitatively unfold (thermal CD scan) | estimated transition temperature (thermal denaturation curve, same conditions as Example 3 (292 microM, 20 mM phosphate buffer, 150 mM NaCl, pH 7.2), transition incomplete)
1 | Ac-MSIEEIQKQQAAIQKQIAAIQKQIYRMTP-NH2 [Q2a] | moderately stable | high alpha-helical secondary structure content | greatly, but not completely, lost | up and down scans almost perfectly coincided | – | –
2 | Ac-MSIEEIQKQIAAIQKQIAAIQKQIYRMTP-NH2 [Q2aI] | extremely thermostable | – | – | full reversibility | ≥ 95 degrees Celsius | around 97 degrees Celsius
